Measurements taken from patent US12497461B2, “Human NTCP-binding antibody capable of inhibiting infection of hepatitis B virus (HBV) to human hepatocytes” (priority 2019, dated 2025).

Experiments:
[1] = target: T1, epitope region-containing peptide fragment (AFPPEVIGPLFFFPLLYMIFQLGEG-biotin) (Homo sapiens, UniProt Q14973); assay: Surface plasmon resonance assay (BIAcore) of antigen binding affinity; settings: 25° C.; antibody immobilized on CM5 chip
T1 sequence (Q14973 273-297 limits assumed): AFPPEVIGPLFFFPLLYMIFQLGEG
Procedure: In short, a carboxymethylated dextran biosensor chip (CM5, BIAcore Inc.) was activated by N-ethyl-N′-(3-dimethylaminopropyl)-carbodiimide hydrochloride (EDC) and N-hydroxysuccinimide (NHS) in accordance with the provider's instruction. An anti-mouse IgG antibody was diluted with 10 mM sodium acetate (pH5.2) up to 30 μg/ml. The dilution was injected at a flow rate of 5 to 10 μl/minute such that the reaction unit (RU) of the protein bound became 9,000 to 14,000 RU. In contrast, an anti-human IgG antibody was diluted with 10 mM sodium acetate (pH5.0) up to 25 μg/ml. The diluted antibody was injected at a flow rate of 5 to 10 μl/minute such that the reaction unit (RU) of the protein bound became 9,000 to 14,000 RU. After injection of each of the anti IgG antibodies, 1 M ethanolamine was injected in order to block unreactive groups. For kinetic measurement, N6HB426 antibody diluted with a running buffer (HBS-P: 10 mM HEPES pH7.5, 150 mM NaCl, 0.005% NP40) up to 10 μg/ml was immobilized onto CM5 chip via the anti-mouse IgG antibody, in advance. To the chip, a solution of an epitope region-containing peptide fragment ([…]-biotin: SEQ ID NO: 24) diluted with the running buffers at different concentrations was added at 25° C. at a flow rate of 10 μl/minute for 2 minutes. In contrast, the recombinant N6HB426 human chimeric IgG4 antibody was diluted with the running buffer up to 10 μg/ml and then was immobilized onto a sensor chip (CM5) via the anti-human IgG antibody in advance. To the chip, a solution of an epitope region-containing peptide fragment diluted with the running buffers at different concentrations was added at 25° C. at a flow rate of 10 μl/minute for 2 minutes.
The refractive index of the solution varied in correlation to the mass of a chip surface changed when a peptide fragment molecule bound to N6HB426 antibody on the sensor chip, was monitored in real-time. Using simple one-to-one Langmuir binding model (BIAcore Evaluation software version 3.1) by fitting sensor grams of antigen-antibody association and dissociation at the same time, association rate (Ka) and dissociation rate (Kd) were calculated. A Kd/Ka ratio was calculated to obtain an equilibrium dissociation constant (KD).

[2] = tested on: HBV (Genotype C or Genotype D)
[3] = tested on: HBV / NTCP double mutant (PE276, 277AA); assay: HBV infection of cells expressing NTCP double mutant in the presence of antibody; assay type: cell-based, hepatitis B virus (HBV); settings: FIG. 7
Description: (§1) To establish NTCP expression cells, HepG2 cells or Huh7 cells were infected with a lentiviral vector having a nucleic acid encoding a wild-type NTCP or each of NTCP mutants. Forty-eight hours after infection, the cells were subjected to an immunofluorescence assay or a viral infection assay.

[4] = target: T2, human NTCP triple mutant (YDD146, 149, and 152AAA) (Homo sapiens, UniProt Q14973, D149A/D152A/Y146A); assay: Antibody binding to NTCP mutant (epitope mapping); settings: FIG. 5B
T2 construct: expressed in transfected cells; host or cells: HepG2 or Huh7 cells, lentiviral transduction
T2 sequence (Q14973 1-349 Y146A/D149A/D152A): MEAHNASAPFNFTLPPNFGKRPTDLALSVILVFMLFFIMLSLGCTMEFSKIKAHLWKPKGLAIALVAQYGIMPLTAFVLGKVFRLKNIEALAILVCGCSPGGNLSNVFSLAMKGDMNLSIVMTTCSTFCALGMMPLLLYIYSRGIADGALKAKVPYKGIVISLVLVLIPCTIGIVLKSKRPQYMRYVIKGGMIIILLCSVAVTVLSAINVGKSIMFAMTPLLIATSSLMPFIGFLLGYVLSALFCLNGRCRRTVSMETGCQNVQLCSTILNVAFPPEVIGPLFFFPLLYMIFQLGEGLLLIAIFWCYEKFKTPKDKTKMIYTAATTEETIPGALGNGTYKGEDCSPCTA
Procedure: as §1
Huh7 cells expressing a wild-type NTCP or each of the NTCP mutants were fixed with 4% paraformaldehyde, and then, a permeation treatment with 0.3% Triton X-100 was performed. Each of the NTCPs was detected by using N6HB426-20 antibody or HE1-9-10 antibody (dilution ratio: 1:200) and an Alexa Fluor488-conjugate goat anti-mouse IgG antibody (secondary antibody) (Thermo Fisher Scientific) (dilution ratio: 1:1000). Imaging of the cells was carried out by use of a laser scanning confocal microscope using FLUOVIEW fv1000 and IX73 (OLYMPAS).
In this manner, the relationship with a region important for HBV infection was clarified. Sensitivity to HBV infection, a change in inhibitory activity of the antibody and contribution of a predetermined amino acid residue to FACS analysis were evaluated by alanine scanning method and use of an NTCP mutant transfectant. […] However, both ends of the amino acid residues at positions 276-277 (i.e., amino acid residues at positions 274-275 and 278-279) serve as an epitope involved in HBV infection. […] The phenomenon was further precisely analyzed. […]

pseudo-HBV (HBV/NL) = assay: Infection inhibitory activity test using pseudo-HBV with integrated NanoLuc gene (Example 1); assay type: cell-based, hepatitis B virus (HBV); settings: pseudo-virus, FIG. 1A
Procedure: The culture supernatant of 61,500 hybridomas was allowed to react with B lymphoma cell line forcibly expressing hNTCP and a parent cell line, washed and stained with a fluorescence-labeled anti-mouse IgG antibody. Screening was carried out by FACS to obtain 700 hybridoma cell lines producing an antibody that binds to an NTCP. The positive-hybridoma culture supernatant was screened by an HBV inhibitory activity test using a pseudo-virus. […] Using the culture supernatant of each clone, the test was repeated. As is apparent from FIG. 1A, hybridoma clones producing an antibody, which lowers an HBV infection rate but not viability of cells, were obtained.
The clone-derived antibodies established were purified and the activities of them were checked again by a test for infection inhibitory activity using pseudo-HBV obtained by integrating a NanoLuc gene into the genome.

B1: N6HB426-20 antibody: anti-human NTCP monoclonal antibody from a sub-clone of N6HB426 hybridoma; VH SEQ ID NO: 3, VL SEQ ID NO: 4 (antibody, V domains shown)
VH: QVQLQQSGAELVKPGASVKLSCKASDFTFTEYTIHWIKQMSGQGLEWIGWFYPGSGDIKYSEKFKDKATLTADKSSSTVYMELNRLTSEDSAVYFCARHMRDFRGFYYGRFYFDYWGQGTTLTVSS
VL: EIVLTQSPAIMSASPGEKVTITCRASSSVSSSYLHWYQQKSGVSPKLWIYSTSNLASGVPARFSGSGSGTSYSLTINSVEAEDAATYYCQQYSGYRWTFGGGTTLEIKRA
modifications: N6HB426 antibody heavy chain variable region; N6HB426 antiibody light chain variable region
[1]
  Ka (1/Ms) association rate: 821.2 M⁻¹ s⁻¹
  Kd (1/s) dissociation rate: 3.19e-08 s⁻¹
[2]
  inhibitory activity on infection of normal human hepatocytes with HBV: comparable to preS1
[3]
  inhibition of HBV infection of cells expressing double mutant (PE276, 277AA): failed to be inhibited
[4]
  binding to triple mutant (YDD146, 149, and 152AAA): weak binding
pseudo-HBV (HBV/NL)
  HBV inhibitory activity of hybridoma culture supernatant: comparable to preS1 peptide
